Reference: patent US6348573B1, “Compositions and methods for identifying apoptosis signaling pathway inhibitors and activators” (The Regents of the University of Michigan, priority 1998, dated 2002)

Legend:
caspase-3 = biological target: T1, caspase-3 (Homo sapiens, UniProt P42574); assay: Co-immunoprecipitation of ARC with caspase-3; assay type: binding; details: 293T lysates
T1 construct: expressed in transfected cells; host or cells: human 293T cells
T1 sequence (P42574 29-277): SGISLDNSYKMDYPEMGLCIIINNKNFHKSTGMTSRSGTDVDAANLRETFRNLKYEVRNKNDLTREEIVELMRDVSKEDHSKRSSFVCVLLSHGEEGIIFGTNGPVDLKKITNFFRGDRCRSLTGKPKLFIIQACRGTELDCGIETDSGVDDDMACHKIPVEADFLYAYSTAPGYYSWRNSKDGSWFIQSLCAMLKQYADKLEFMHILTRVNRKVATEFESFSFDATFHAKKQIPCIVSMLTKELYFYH
Experimental: (§1) Briefly, 2 μg of pcDNA3 or pcDNA3-ARC-Flag or -HA was co-transfected with 3 μg of pcDNA3 or caspase expression plasmids. Total amount of transfected plasmid DNA was always 5 μg. 293T cells were harvested after 22 hr and lysed with 0.2% NP-40 isotonic lysis buffer [Z. N. Oltvai et al., Cell 74:609-619 (1993)]. For immunoprecipitation, […] of soluble protein was incubated with 10 μg/ml of polyclonal anti-Flag, monoclonal anti-AU1 or polyclonal anti-HA antibody for 2 hr at 4° C. and tagged proteins were immunoprecipitated with Protein A-Sepharose 4B (Zymed Laboratories Inc., San Francisco, Calif.). Immunoprecipitates were subjected to 12% SDS-polyacrylamide electrophoresis and immunoblotted with anti-Flag, anti-AU1 or anti-HA antibodies.

[1] = biological target: T2, caspase-1, epitope-tagged (human, UniProt P29466 1-404); assay: co-immunoprecipitation from co-transfected 293T cells, immunoblot
T2 construct: also called pcDNA3-caspase-1-Flag
T2 sequence: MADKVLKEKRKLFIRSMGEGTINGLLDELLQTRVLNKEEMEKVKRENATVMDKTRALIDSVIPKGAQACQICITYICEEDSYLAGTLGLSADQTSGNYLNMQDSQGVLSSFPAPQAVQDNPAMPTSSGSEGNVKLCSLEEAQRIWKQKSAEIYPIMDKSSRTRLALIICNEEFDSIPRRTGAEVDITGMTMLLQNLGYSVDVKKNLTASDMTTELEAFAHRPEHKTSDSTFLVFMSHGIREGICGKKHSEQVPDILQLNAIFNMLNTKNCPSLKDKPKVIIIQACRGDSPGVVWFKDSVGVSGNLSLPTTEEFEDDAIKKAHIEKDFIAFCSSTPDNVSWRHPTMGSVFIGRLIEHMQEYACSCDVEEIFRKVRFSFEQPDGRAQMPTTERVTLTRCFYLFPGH

[2] = biological target: T3, caspase-3, epitope-tagged (UniProt P42574 1-277); assay: as above
T3 construct: also called pcDNA3-caspase-3-Flag; not shown: position and
T3 sequence (looked up): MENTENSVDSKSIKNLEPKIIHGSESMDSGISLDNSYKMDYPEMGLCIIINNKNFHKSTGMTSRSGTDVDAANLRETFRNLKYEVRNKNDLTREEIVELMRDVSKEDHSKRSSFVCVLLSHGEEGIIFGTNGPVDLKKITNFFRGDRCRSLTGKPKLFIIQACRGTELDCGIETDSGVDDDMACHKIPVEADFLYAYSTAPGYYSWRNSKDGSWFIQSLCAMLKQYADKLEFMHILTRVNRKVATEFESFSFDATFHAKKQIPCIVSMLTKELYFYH

[3] = biological target: T4, C-caspase-8-HA (human caspase-8 amino acids 216-496, C-terminal HA tag) (human, UniProt Q14790-4 216-496); assay: co-immunoprecipitation of caspase-8 deletion mutants from 293T cells, immunoblot
T4 construct: range 216-496; The canonical UniProt entry has 479 residues; also called pcDNA3-C-caspase-8-HA; C-terminal region that contains the catalytic domain of caspase-8; not shown: C-terminal HA tag

caspase-8 [4] = biological target: T5, caspase-8 (Homo sapiens, UniProt Q14790); assay: Co-immunoprecipitation of ARC with caspase-8; assay type: binding; details: caspase-8 deletion mutant
T5 construct: expressed in transfected cells; host or cells: human 293T cells
Experimental: as §1

caspase-8 [5] = assay: Co-immunoprecipitation of ARC with caspase-8; assay type: binding, human; details: 293T lysates
Experimental: as §1

293T cells = assay: β-galactosidase apoptosis assay, ARC co-transfection; assay type: cell-based, human
Experimental: Briefly, 2 μg of pcDNA3 or pcDNA3-ARC-Flag or -HA was co-transfected with 3 μg of pcDNA3 or caspase expression plasmids. Total amount of transfected plasmid DNA was always 5 μg. 293T cells were harvested after 22 hr and lysed with 0.2% NP-40 isotonic lysis buffer [Z. N. Oltvai et al., Cell 74:609-619 (1993)]. For immunoprecipitation, […] of soluble protein was incubated with 10 μg/ml of polyclonal anti-Flag, monoclonal anti-AU1 or polyclonal anti-HA antibody for 2 hr at 4° C. and tagged proteins were immunoprecipitated with Protein A-Sepharose 4B (Zymed Laboratories Inc., San Francisco, Calif.). Immunoprecipitates were subjected to 12% SDS-polyacrylamide electrophoresis and immunoblotted with anti-Flag, anti-AU1 or anti-HA antibodies. β-galactosidase apoptosis assay and Caspase-8 enzymatic assay: 5×10^5 293T cells were transfected with 0.3 μg of pcDNA3-β-gal plus each expression plasmid in triplicate. Cells were fixed 16 hrs after transfection, stained for β-galactosidase and assayed for morphological features of apoptosis [M. Muira et al., Cell 75:653-660 (1993)]. Statistical significance was determined by one-way ANOVA followed by Student-Neuman-Keuls post-doc comparisons. For caspase-8 enzymatic assay, 1.5×10^6 human 293T cells were co-transfected with pcDNA3, pcDNA3-ARC-Flag, pcDNA3-caspase-8 and pcDNA3-caspase-8-mt by a calcium phosphate method. Total amount of transfected plasmid DNA was always 2.5 μg. 293T cells were harvested 18hr after transfection and lysed with 0.2% NP-40 isotonic lysis buffer. Tagged proteins were immunoprecipitated and caspase activity was measured as described [N. Inohara et al., Proc. Natl. Acad. Sci. USA 94:10717-10722 (1997)].

T5 sequence (Q14790 1-215 isoform Q14790-4): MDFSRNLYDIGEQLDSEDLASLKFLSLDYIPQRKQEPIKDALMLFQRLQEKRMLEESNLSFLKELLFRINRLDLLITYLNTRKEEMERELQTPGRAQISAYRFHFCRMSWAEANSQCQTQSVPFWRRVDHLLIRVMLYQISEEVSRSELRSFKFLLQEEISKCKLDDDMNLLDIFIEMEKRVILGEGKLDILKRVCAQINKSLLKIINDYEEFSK
T4 sequence (Q14790 199-479 limits assumed): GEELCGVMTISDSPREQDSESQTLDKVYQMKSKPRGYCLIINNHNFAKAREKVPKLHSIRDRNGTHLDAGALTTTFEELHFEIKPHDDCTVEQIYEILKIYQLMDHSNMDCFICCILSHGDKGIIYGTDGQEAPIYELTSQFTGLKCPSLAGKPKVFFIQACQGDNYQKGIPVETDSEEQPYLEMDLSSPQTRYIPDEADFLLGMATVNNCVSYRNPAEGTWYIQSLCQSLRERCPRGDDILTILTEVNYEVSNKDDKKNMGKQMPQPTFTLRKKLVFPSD

B1: human ARC (Apoptosis Repressor with CARD domain), C-terminally Flag- or HA-tagged (other)
chain: MGNAQERPSETIDRERKRLVETLQADSGLLLDALLARGVLTGPEYEALDALPDAERRVRRLLLLVQGKGEAACQELLRCAQRTAGAPDPAWDWQHVGPGYRDRSYDPPCPGHWTPEAPGSGTTCPGLPRASDPDEAGGPEGSEAVQSGTPEEPEPELEAEASKEAEPEPEPEPELEPEAEAEPEPELEPEPDPEPEPDFEERDESEDS
notes: Entire open reading frame expressed in 293T cells; The two tagged constructs are merged here; also called ARC-Flag; ARC-HA; not shown: C-terminal FLAG or HA tag
co-immunoprecipitation with caspase-3 (caspase-3): not
binding result [1]: no binding
binding result [2]: no binding
binding result [3]: no binding
association with the N-terminal death effector domain (DED) of caspase-8 (caspase-8 [4]): associated
co-immunoprecipitation with caspase-8 (caspase-8 [5]): co-immunoprecipitated
induction of apoptosis by expression of ARC (293T cells; ARC alone): did not induce apoptosis
apoptosis induced by C. elegans CED-3 (293T cells; co-expression with ARC): inhibited
apoptosis induced by CLARP (293T cells; co-expression with ARC): inhibited
apoptosis induced by FADD (293T cells; co-expression with ARC): inhibited
apoptosis induced by TRADD (293T cells; co-expression with ARC): inhibited
apoptosis induced by caspase-8 (293T cells; co-expression with ARC): inhibited caspase-8-induced killing in a dose-dependent manner
apoptosis induced by stimulation of CD95/Fas receptor (293T cells; co-expression with ARC): partially but significantly inhibited
apoptosis induced by stimulation of TNF-R1 receptor (293T cells; co-expression with ARC): partially but significantly inhibited
apoptosis induced by stimulation of TRAMP/DR3 receptor (293T cells; co-expression with ARC): partially but significantly inhibited
apoptosis mediated by caspase-9 (293T cells; co-expression with ARC): not
